The target in experiment [1] is human ApoC3 (human). The experiment in a line: SPR pH 7.4.
Experiment [2] deals with human ApoC3 (human). The experiment in a line: SPR pH 5.5.
Experiment [3] concerns the target human ApoC3 (human). Nature of the experiment: SPR pH 5.5. The source holds these as a separate data set.
Experiment [4] deals with human ApoC3 (human). Nature of the experiment: SPR pH 7.4. The source holds these as a separate data set.

Positions count from the first letter of the chain named.

Chain of human ApoC3 (human) (chain, as listed by the source): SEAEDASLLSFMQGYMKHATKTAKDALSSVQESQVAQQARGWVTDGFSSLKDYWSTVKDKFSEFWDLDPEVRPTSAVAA

B1: 5E5VH5VH12_VL8 IgG1 (antibody, V domains shown)
VH: QLQLVESGGGLVQPGGSLRLSCAASGFTFGTYSMRWVRQVPRKALEWVSSIHTDGGGTAYRDSVKGRFTISRDNAKNTLYLQMNNLKPEDTAIYYCVIHGYSDWGQGTQVTVSS
VL: ATMLTQSPGSLSVVPGESASISCKTSQGLVHSDGKTYFYWFLQKPGQSPQQLIYQVSNRASGVPDRFTGSGSGTDFTLKISGVKAEDAGVYYCAHGTYYPHTFGSGTRLEIK
In the case of B1, binding with human ApoC3 [1] was characterised by a dissociation constant (Kd) of 22.4 nM. Besides, the binding result in the experiment with human ApoC3 [2] is listed as “no binding”.

B2: 5E5VH12_VLWT scFv-Fc (antibody, V domains shown)
VH: B1 VH with H52S
VL: B1 VL with H95Q
As to B2, the results for the Kd in the experiment with human ApoC3 [3] and with human ApoC3 [4] were 16 nM and 0.51 nM, respectively.
